Data as given in patent US20090318342A1, “Compounds” (IMPERIAL INNOVATIONS LIMITED, priority 2005, published 2009).

What was measured:
[1] = target: T1, full-length collagenase 1 (MMP-1) (Homo sapiens, UniProt P03956); details: Table I; data taken from ref. 8; read-out: Ki(app) MMP-1; cited from earlier work
T1 construct: full-length collagenase 1 (MMP-1)
T1 sequence (P03956 100-469): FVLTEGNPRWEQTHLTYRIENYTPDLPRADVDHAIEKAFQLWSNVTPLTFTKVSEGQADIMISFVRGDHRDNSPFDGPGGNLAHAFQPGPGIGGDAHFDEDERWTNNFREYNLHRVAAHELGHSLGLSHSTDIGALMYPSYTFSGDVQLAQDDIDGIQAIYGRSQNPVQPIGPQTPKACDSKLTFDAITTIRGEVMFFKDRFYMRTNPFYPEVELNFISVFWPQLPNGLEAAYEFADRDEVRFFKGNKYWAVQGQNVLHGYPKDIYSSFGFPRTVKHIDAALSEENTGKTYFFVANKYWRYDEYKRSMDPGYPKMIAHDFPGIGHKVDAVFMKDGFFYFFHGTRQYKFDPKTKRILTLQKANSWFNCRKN

ADAMTS-4 = target: T2, ADAMTS-4 (Homo sapiens, UniProt O75173); assay: Aggrecanase assay with GST-IGD-FLAG substrate, ADAMTS-4; type: biochemical; details: Table 3, pH 7.5, 37° C., read-out: Ki(app) ADAMTS-4
T2 sequence (O75173 213-837): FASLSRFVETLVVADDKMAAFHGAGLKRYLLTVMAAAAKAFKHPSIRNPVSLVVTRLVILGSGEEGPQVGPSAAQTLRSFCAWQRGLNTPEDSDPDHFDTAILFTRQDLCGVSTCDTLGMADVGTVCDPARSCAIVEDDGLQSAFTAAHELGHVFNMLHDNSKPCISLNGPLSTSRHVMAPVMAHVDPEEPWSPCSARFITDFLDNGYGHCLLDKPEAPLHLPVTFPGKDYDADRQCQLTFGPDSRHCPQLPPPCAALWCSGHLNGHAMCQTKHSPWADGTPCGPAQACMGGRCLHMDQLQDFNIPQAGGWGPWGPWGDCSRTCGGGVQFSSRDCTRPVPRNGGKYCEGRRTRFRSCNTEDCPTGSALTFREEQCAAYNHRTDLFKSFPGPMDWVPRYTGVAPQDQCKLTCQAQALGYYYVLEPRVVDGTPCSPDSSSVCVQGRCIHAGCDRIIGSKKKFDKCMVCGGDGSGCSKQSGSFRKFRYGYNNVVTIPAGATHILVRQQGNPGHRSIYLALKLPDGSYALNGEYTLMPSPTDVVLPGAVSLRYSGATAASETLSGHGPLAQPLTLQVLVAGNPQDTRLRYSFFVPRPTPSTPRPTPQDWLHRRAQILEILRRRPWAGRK
Protocol: FIG. 8. Graphs of Ki(app) determination. The GST-IGD-FLAG substrate assay was used to determine the Ki(app) of the N-terminal reactive site mutants against ADAMTS-4 (filled squares) and ADAMTS-5 (open circles).
The substrate containing glutathione S-transferase (GST) fused with the interglobular domain (IGD) of aggrecan (Tyr^331 to Gly^457) attached with a C-terminal FLAG sequence (GST-IGD-FLAG) was prepared by cloning it into pGEX-4T1 at the EcoR1 and Xho1 cloning sites. This substrate was expressed in E. coli strain BL-21 (non-DE3) transfected with the pGEX4T1 GST-IGD-FLAG plasmid by induction with […] isopropyl-beta-D-thiogalactopyranoside (IPTG). […] The concentration of intact substrate (52 kDa) was determined by comparison with Coomassie Brilliant Blue staining of known amounts of bovine serum albumin (GE Healthsciences, Buckinghampshire, UK). […]
Aggrecanase assays were carried out in 50 mM Tris HCl pH 7.5, 150 mM NaCl, 10 mM CaCl2, 0.02% NaN3, 0.05% Brij-35 at 37° C. […] The stained gels were then scanned using a scanning densitometer (Biorad GS-710, Hemel Hempstead, UK) and the band intensity of the product (17 kDa) quantified using the 1D Phoretix quantification software (Nonlinear Dynamics, Newcastle upon Tyne, UK). Background subtraction was done using the rolling ball method, and band intensity expressed as pixel volumes.

Row | Molecule | Ki [1] [nM] | Ki (ADAMTS-4) [nM]
1 | N-TIMP-3: N-terminal inhibitory domain of TIMP-3 (residues 1 to 121), C-terminally His-tagged, wild-type (protein) CTCSPSHPQDAFCNSDIVIRAKVVGKKLVKEGPFGTLVYTIKQMKMYRGFTKMPHVQYIHTEASESLCGLKLEVNKYQYLLTGRVYDGKMYTGLCNFVERWDQLTLSQRKGLNYRYHLGCN | 1.2 ± 0.5 | 2.4 ± 1.6
2 | -1A: N-TIMP-3 mutant with the addition of an N-terminal alanine extension (-1A) (protein) ACTCSPSHPQDAFCNSDIVIRAKVVGKKLVKEGPFGTLVYTIKQMKMYRGFTKMPHVQYIHTEASESLCGLKLEVNKYQYLLTGRVYDGKMYTGLCNFVERWDQLTLSQRKGLNYRYHLGCN | – | 25 ± 3
